For assay [1], the target named is HLA-B*15:01. Nature of the assay: IEDB peptide-MHC binding, purified MHC/direct/fluorescence; filed as Kd, often an IC50 or EC50 that approximates it; ≥ and ≤ were set here for values at or beyond the usual limits of such assays.
Another assay concerns the target HLA-B*46:01. The assay is described as above.
The target of assay [2] is HLA-B*15:01. Nature of the assay: IEDB peptide-MHC binding, purified MHC/competitive/radioactivity; filed as Kd, often an IC50 or EC50 that approximates it; ≥ and ≤ were set here for values at or beyond the usual limits of such assays.
A further assay addresses HLA-A*02:02. The assay is described as above. The conditions noted are these: source organism: Vaccinia virus WR.
The target in another assay is HLA-A*02:06. The assay is described as above.
In the next assay the target is HLA-A*02:03. The assay is described as above.
For a further assay, the target named is HLA-A*23:01. The description is as above.
The target of another assay is HLA-A*24:02. The assay is described as above.
The target of the next assay is HLA-A*32:01. Described as above.
For assay [3], the target named is HLA-A*03:01. In words: IEDB peptide-MHC binding, purified MHC/competitive/fluorescence; filed as Kd, often an IC50 or EC50 that approximates it; ≥ and ≤ were set here for values at or beyond the usual limits of such assays.
Assay [4] addresses HLA-A*01:01. In words: IEDB peptide-MHC binding, purified MHC/direct/fluorescence; filed as Kd, often an IC50 or EC50 that approximates it; ≥ and ≤ were set here for values at or beyond the usual limits of such assays.
A further assay concerns the target HLA-B*18:01. Described as above. To be noted: source organism: Mycobacterium tuberculosis str. Haarlem.
The target of assay [5] is HLA-B*08:01. Described as above.
The next assay concerns the target HLA-B*40:01. Described as above.
Another assay addresses HLA-B*27:05. Described as above.
The target of the next assay is HLA-B*57:01. The description is as above. The conditions noted are these: source organism: Mycobacterium tuberculosis str. Haarlem.
The target in assay [6] is HLA-A*03:01. The assay is described as above.
In another assay the target is HLA-A*31:01. The description is as above.
The target of the next assay is HLA-A*11:01. The assay is described as above.
Another assay deals with HLA-A*69:01. Described as above.
A further assay addresses HLA-B*44:02. Described as above.
Assay [7] addresses HLA-A*02:01. Nature of the assay: IEDB peptide-MHC binding, purified MHC/competitive/radioactivity; filed as Kd, often an IC50 or EC50 that approximates it; ≥ and ≤ were set here for values at or beyond the usual limits of such assays.
The target in the next assay is HLA-A*02:17. The description is as above.
The target of assay [8] is HLA-A*01:01. The assay is described as above. The conditions noted are these: source organism: Dengue virus 2 Jamaica/1409/1983.
The next assay has as its target HLA-B*35:01. The description is as above. To be noted: source organism: Dengue virus 3 Sri Lanka/1266/2000.
In a further assay the target is HLA-B*53:01. Described as above. To be noted: source organism: Dengue virus 3 Sri Lanka/1266/2000.
Assay [9] deals with HLA-B*08:01. Described as above.
Assay [10] has as its target HLA-A*02:01. Nature of the assay: IEDB peptide-MHC binding, purified MHC/direct/fluorescence; filed as Kd, often an IC50 or EC50 that approximates it; ≥ and ≤ were set here for values at or beyond the usual limits of such assays. The conditions noted are these: source organism: Escherichia coli O157:H7.
The target in another assay is HLA-A*26:01. The description is as above. To be noted: source organism: Escherichia coli O157:H7.
The target in the next assay is HLA-B*07:02. The assay is described as above. The conditions noted are these: source organism: Escherichia coli O157:H7.
A further assay addresses HLA-B*58:01. The assay is described as above. The conditions noted are these: source organism: Escherichia coli O157:H7.
Setting [11] is: source organism: Lassa virus Josiah.
Where [12] appears, read: source organism: Vaccinia virus WR.
The mark [13] stands for this setting: source organism: Dengue virus 4 Philippines/H241/1956.
Setting [14] is: source organism: Dengue virus 1 Brazil/97-11/1997.
Setting [15] is: source organism: Dengue virus 3 Martinique/1243/1999.
Setting [16] is: source organism: Mycobacterium tuberculosis str. Haarlem.
Setting [17] is: source organism: Dengue virus 1 Singapore/S275/1990.
The mark [18] stands for this setting: source organism: Dengue virus 2 Jamaica/1409/1983.
Where [19] appears, read: source organism: Dengue virus 3 China/80-2/1980.
Where [20] appears, read: source organism: Dengue virus 3 Sri Lanka/1266/2000.
The mark [21] stands for this setting: source organism: Escherichia coli O157:H7.
Setting [22] is: source organism: Escherichia coli.
The mark [23] stands for this setting: source organism: Dengue virus 2 Puerto Rico/PR159-S1/1969.

As a reminder, the Kd is the equilibrium constant for the complex coming apart. As for GLVECNNHY, the equilibrium dissociation constant (Kd) was 182 nM with HLA-B*15:01 [1] (setting [11]) and at least 20000 nM with HLA-B*46:01 (setting [11]).

On to LVQYRILPM, for which the Kd with HLA-B*15:01 [2] (setting [12]) is 63.3 nM; in the assay with HLA-A*02:02 it was 14800 nM; in the assay with HLA-A*02:06 (setting [12]) it was 4670 nM; with HLA-A*02:03 (setting [12]), 1170 nM.

For the sequence QIHLAIMAVF, the equilibrium dissociation constant (Kd) in the assay with HLA-B*15:01 [2] (setting [13]) turned out to be 17 nM.

On to VMAFIAFLRF, for which the figures for the Kd with HLA-B*15:01 [2] (setting [14]), with HLA-A*23:01 (setting [14]) and with HLA-A*24:02 (setting [14]) were 62.3 nM, 846 nM and 901 nM, respectively.

As to IQNSGGTSI, in the assay with HLA-B*15:01 [2] (setting [15]), the Kd was 25.7 nM.

As for LLLSINSSF, the Kd with HLA-B*15:01 [2] (source organism: Variola virus) worked out at 0.883 nM; in the assay with HLA-A*32:01 (source organism: Variola virus), 2090 nM.

In the assay with HLA-A*03:01 [3] (source organism: Escherichia coli O139:H28 str. E24377A), ALALFDLLK had a dissociation constant (Kd) of 56.7 nM.

With IMANRAQVL, the dissociation constant Kd with HLA-A*01:01 [4] (setting [16]) is at least 20000 nM; with HLA-B*18:01, at least 20000 nM; with HLA-B*08:01 [5] (setting [16]) it was 332 nM; in the assay with HLA-B*40:01 (setting [16]) it was at least 20000 nM; with HLA-B*27:05 (setting [16]), at least 20000 nM; with HLA-B*46:01 (setting [16]), at least 20000 nM. Also, the dissociation constant Kd with HLA-B*57:01, with HLA-A*03:01 [6] (setting [16]), with HLA-A*31:01 (setting [16]), in the assay with HLA-A*11:01 (setting [16]), with HLA-A*69:01 (setting [16]) and with HLA-B*44:02 (setting [16]) was at least 20000 nM throughout.

As to ILLKATLLAV, the dissociation constant Kd with HLA-A*02:01 [7] (setting [17]) amounted to 2.24 nM; with HLA-A*02:06 (setting [14]) it was 18.1 nM; with HLA-A*02:03 (setting [14]) it was 2.21 nM; with HLA-A*02:17 (setting [17]) it was 318 nM.

As to KLHSGVDVF, the Kd with HLA-B*15:01 [2] (setting [13]) came to 7.72 nM.

For the sequence LTFDYVVTF, the results for the dissociation constant Kd with HLA-B*15:01 [2] (setting [12]) and in the assay with HLA-A*32:01 (setting [12]) were 2.45 nM and 17.2 nM, respectively.

As to LLLLTLLATV, the Kd with HLA-A*02:01 [7] (setting [18]) was 64.6 nM; with HLA-A*02:06 (setting [18]), 23.8 nM; with HLA-A*02:03 (setting [18]) it was 1.37 nM; in the assay with HLA-A*02:17 (setting [18]) it was 54.4 nM.

As to KMARAGLGH, in the assay with HLA-A*03:01 [3] (source organism: Escherichia coli O157:H7 str. EDL933), the Kd was 25.1 nM.

QMSSGNLLF: the Kd with HLA-A*01:01 [8] was 4390 nM; in the assay with HLA-B*15:01 [2] (setting [18]), 6.83 nM.

With VMAVGLVSI, the equilibrium dissociation constant (Kd) with HLA-A*02:03 (setting [15]) stood at 1.11 nM; with HLA-A*02:17 (setting [19]) it was 3200 nM.

Regarding NSKNTSMSF, the Kd with HLA-B*15:01 [2] (setting [15]) came out at 526 nM.

As for MMILPAALAF, the Kd was 2.41 nM with HLA-B*15:01 [2] (setting [20]); 1490 nM in the assay with HLA-B*35:01; 119 nM with HLA-A*23:01 (setting [20]); 6480 nM with HLA-B*53:01; 916 nM in the assay with HLA-A*24:02 (setting [20]).

With LQWIASAIVL, the Kd with HLA-B*15:01 [2] (setting [15]) was 6.43 nM; with HLA-B*08:01 [9] (setting [15]), 4970 nM.

On to IVIGVGNSAL, for which, in the assay with HLA-B*15:01 [2] (source organism: Dengue virus 4 Dominica/814669/1981), the Kd was 52.9 nM.

Consider LLWFLTGTF, for which the dissociation constant (Kd) with HLA-B*15:01 [2] (setting [12]) came out at 0.776 nM; in the assay with HLA-A*32:01 (setting [12]), 93 nM.

As for ILIGFLVLWI, the Kd with HLA-A*02:01 [7] (setting [13]) is 97.1 nM; with HLA-A*02:17 (setting [13]), 2990 nM.

LLANILSEH had a Kd with HLA-A*03:01 [3] (source organism: Vibrio cholerae 2740-80) of 525 nM.

For AQRPAKYSY, the Kd in the assay with HLA-A*01:01 [4] (setting [21]) was at least 20000 nM; in the assay with HLA-A*02:01 [10], at least 20000 nM; with HLA-B*15:01 [1] (setting [22]), 133 nM; with HLA-A*26:01, at least 20000 nM; in the assay with HLA-B*08:01 [5] (setting [21]), at least 20000 nM; with HLA-B*40:01 (setting [21]), at least 20000 nM. The Kd with HLA-B*27:05 (setting [21]) is at least 20000 nM; with HLA-B*46:01 (setting [21]), at least 20000 nM; in the assay with HLA-B*07:02 it was at least 20000 nM; with HLA-A*03:01 [6] (setting [21]) it was at least 20000 nM; in the assay with HLA-A*31:01 (setting [22]), 622 nM; with HLA-A*11:01 (setting [21]) it was at least 20000 nM. Further, the dissociation constant Kd with HLA-A*69:01 (setting [21]), with HLA-B*44:02 (setting [21]) and in the assay with HLA-B*58:01 was at least 20000 nM each time.

For KLTDWDFVV, the values for the equilibrium dissociation constant (Kd) in the assay with HLA-A*02:01 [7] (source organism: dengue virus type 4), with HLA-A*02:06 (setting [13]) and with HLA-A*02:17 (setting [13]) were 61 nM, 2.33 nM and 744 nM, respectively.

On to FLDLPLPWAA, for which the dissociation constant (Kd) in the assay with HLA-A*02:01 [7] (setting [13]) amounted to 4.19 nM; with HLA-A*02:06 (setting [13]), 59.3 nM; in the assay with HLA-A*02:17 (setting [13]) it was 499 nM.

For the sequence QVMLLVLCAV, the Kd with HLA-A*02:01 [7] (setting [19]) was 146 nM; with HLA-A*02:06 (setting [15]), 11.8 nM; in the assay with HLA-A*02:03 (setting [15]) it was 604 nM; with HLA-A*02:17 (setting [19]) it was at least 35100 nM.

For the sequence HMIAGVFFT, the values for the dissociation constant (Kd) with HLA-A*02:01 [7] (setting [20]) and in the assay with HLA-A*02:17 (setting [20]) were 9.01 nM and 1400 nM, respectively.

As for SIILEFFLIV, the Kd was 29.9 nM with HLA-A*02:01 [7] (setting [18]), 43.7 nM with HLA-A*02:06 (setting [18]) and 4020 nM with HLA-A*02:17 (setting [18]).

As to FQRALIFILL, in the assay with HLA-B*15:01 [2] (setting [18]), the equilibrium dissociation constant (Kd) came to 117 nM.

As for YLEFEALGFL, the figures for the Kd with HLA-A*02:01 [7] (setting [19]) and with HLA-A*02:17 (setting [19]) were 77.1 nM and 45.3 nM, respectively.

On to VILAGPMPV, for which, in the assay with HLA-A*02:17 (setting [18]), the Kd turned out to be 1360 nM.

Take MVHIYFVSL: the Kd turned out to be 5460 nM with HLA-B*15:01 [2] (setting [12]) and 1.35 nM with HLA-B*08:01 [9] (setting [12]).

Turning to NAHKLILSG, the Kd with HLA-B*15:01 [2] (setting [12]) is 18100 nM.

As for MSIDHCSSF, the equilibrium dissociation constant (Kd) with HLA-B*15:01 [2] (setting [12]) is 0.952 nM.

In the case of LLLLGLMILL, the dissociation constant (Kd) turned out to be 11.7 nM in the assay with HLA-A*02:01 [7] (setting [19]), 21.5 nM in the assay with HLA-A*02:06 (setting [15]) and 94.9 nM in the assay with HLA-A*02:17 (setting [19]).

With TLYAVATTFI, the values for the Kd in the assay with HLA-A*02:01 [7] (setting [23]), with HLA-A*02:03 (source organism: Dengue virus 2 Peru/IQT2913/1996) and with HLA-A*02:17 (setting [23]) were 86.3 nM, 13.7 nM and 1300 nM, respectively.

The values are drawn from the Immune Epitope Database (IEDB).
